This note sets out measurements from patent publication US20210380637A1.

Bridges are numbered along the chain shown (N, C = ends).

The target in experiment [1] is human serum-derived γ-globulin (Sigma-Aldrich). Kind of experiment: DBC on peptide-immobilized column, 0 NaOH wash cycles.
The target is the same in experiment [2]. Kind of experiment: DBC on peptide-immobilized column, 0 NaOH wash cycles (reference).
Experiment [3] shares this target. Briefly: DBC on peptide-immobilized column after 1 wash cycle with 0.1 M NaOH.
For experiment [4] the target is unchanged. Kind of experiment: DBC on peptide-immobilized column after 2 wash cycles with 0.1 M NaOH.
Experiment [5] shares this target. Kind of experiment: DBC on peptide-immobilized column after 5 wash cycles with 0.1 M NaOH.
Experiment [6] has the same target. Briefly: DBC on peptide-immobilized column after 10 wash cycles with 0.1 M NaOH.
A further experiment concerns the target human IgG. Kind of experiment: SPR (BIAcore T200), human IgG immobilized on chip, peptide injected at 15.6-1000 nM.
In experiment [7] the target is human serum-derived γ-globulin (Sigma-Aldrich). Kind of experiment: column chromatography, peptide immobilized on 1 mL NHS-activated column, 1 mg/mL human γ-globulin at 1 mL/min.

B1: cross-linked cyclic peptide of Example 1 (N-terminal PEG4-modified, C-terminal amidated …, the two outer cysteine residues linked as in formula CHEM-US-00008) (peptide)
peptide: GPDCAYHRGELVWCTFH
modifications: N-terminal H2N-PEG4; C-terminal amide; position 4 built as homoserine (Hse), its side-chain hydroxyl chlorinated and reacted with Cys 14, so that the two outer cysteine positions (4 and 14) are joined by the linker of drawing CHEM-US-00008 instead of a disulfide
B1: the DBC 10% in experiment [1] stood at 9.4 mg/mL; in experiment [3] it was 9.5 mg/mL; in experiment [4] it was 9.4 mg/mL; in experiment [5], 9.2 mg/mL; in experiment [6], 8.9 mg/mL. For the same molecule, the DBC 10% (% NaOH wash cycle 0) came out at 100% in experiment [2]; 101% in experiment [3]; 100% in experiment [4]; 97.9% in experiment [5]; 94.7% in experiment [6]. In addition, the dissociation constant Kd in the experiment with human IgG came out at 340 nM. In the experiment with human IgG, this molecule came in with a dissociation rate constant (koff) of 0.22 s⁻¹. In the experiment with human IgG, this molecule yielded a kon of 650000 M⁻¹ s⁻¹. The DBC (dynamic binding capacity, 10% breakthrough) in experiment [7] was found to be 9.4 mg/mL-column.
In the case of {NH2‑PEG4}-GPDCAYHRGELVWCTFH-NH2 (disulfide 4-14), the DBC 10% in experiment [1] worked out at 13.5 mg/mL; in experiment [3], 12.4 mg/mL; in experiment [4], 11.5 mg/mL; in experiment [5] it was 8.9 mg/mL; in experiment [6] it was 6.1 mg/mL. In addition, the DBC 10% (% NaOH wash cycle 0) in experiment [2] stood at 100%; in experiment [3], 91.9%; in experiment [4], 85.2%; in experiment [5], 65.9%; in experiment [6], 45.2%.
With {NH2‑PEG4}-GPDCAYHRGELVWCTFH-NH2 (linker 4-14 via 1,3‑dichloro‑2‑propanone), in the experiment with human IgG, the dissociation constant Kd turned out to be 4900 nM and the off-rate constant (koff) is 0.005 s⁻¹. Moreover, the DBC (dynamic binding capacity, 10% breakthrough) in experiment [7] turned out to be 2.3 mg/mL-column.
